# Laboratory results: article PMC3525768
# T1: AgrAC (AgrA C-terminal LytTR domain) (Staphylococcus aureus, UniProt P0A0I7 137-238)
# T1 sequence: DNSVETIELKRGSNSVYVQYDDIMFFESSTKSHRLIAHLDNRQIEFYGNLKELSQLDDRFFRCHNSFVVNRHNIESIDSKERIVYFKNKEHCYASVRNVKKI
# Target: T1, AgrAC (AgrA C-terminal LytTR domain)
# Experiment: EMSA
binder,measurement,value
19-bp AgrA target DNA duplex (dsDNA) DNA 1: ATTTAACAGTTAAGTATTT DNA 2: AAATACTTAACTGTTAAAT,binding result,binds
